For 1 molecule, EC50, OD值 (OD450nm-OD630nm) and Kd results are on record in CN114634565A.

For test [1], the target named is 裂谷热病毒Gn蛋白 (GenBank: DQ380208.1) (裂谷热病毒 (Rift Valley fever virus)).
Test [2] has the same target. The source holds these as a separate data set.
The target is the same in test [3]. The source holds these as a separate data set.

B1: 抗裂谷热病毒的单克隆抗体E44 (antibody, V domains shown)
VH: QVQLQQWGEGLVNPSEALSLTCAVYGDSISDDYHWSWIRQPPGKGLEWIGYIFGSSAGTNYNPSLKNRVTISKDTSKNQFSLELTSVTAADTAVYYCARDVTTDRLDVWGPGVPVTVSS
VL: NFMLTQPPSVSADQGQRVTISCSGSSFNVRRYYVSWYQQVPGAAPKLLISDVNKRPSGVSDRFSGSQSGTSATLGISGLRPEDEADYYCSVWDSSLGARVFGGGTRLTVLG
The molecule B1 had an EC50 in test [1] of 2.66 ng/mL. The same molecule returned an OD值 (OD450nm-OD630nm) in test [2] of 2.35. For the same molecule, the Kd in test [3] is 2.58 nM.

For orientation: EC50 means the midpoint of the concentration-response curve. A high value points to a less potent agent. Usually Kd stands for the concentration at which binding is half-saturated. Low readings indicate tighter binding, high ones weaker binding.
